Each block holds one binder with its values, some of them ahead of it.
Legend:
[1] = target: T1, human PSMA on PSMA-transfected CHO cells (human, UniProt Q04609 1-750); assay: binding to PSMA-transfected CHO cells, labeled secondary antibody to the anti-CD3 scFv
T1 construct: whole, on cells; also called Hu PSMA CHO
Protocol: (§1) Surface binding was detected with a labeled secondary antibody specific for the anti-CD3 scFv.
(§2) The binding affinities to both human and cyno PSMA and human and cyno CD3 epsilon were determined.

[2] = target: T2, cyno PSMA on PSMA-transfected CHO cells (cynomolgus monkey, UniProt A0A2K5VNZ0 1-750); assay: as above
T2 construct: whole, on cells; also called Cyno PSMA CHO
Protocol: as §1, §2

human PSMA-Fc [3] = target: T3, human PSMA-Fc (human, UniProt Q04609 44-750, limits assumed); assay: Octet, human PSMA-Fc
T3 construct: also called Human PSMA-Fc fusions; not shown: Fc part
Protocol: Binding affinity of select PSMA PTE variants was tested by Octet.

human PSMA-Fc [4] = target: T3, human PSMA-Fc; assay: Octet
[5] = target: T4, cynomolgus monkey CD3 epsilon (cynomolgus monkey, UniProt Q95LI5 22-117, limits assumed); assay: Octet
T4 construct: also called cyCD3e
T4 sequence (looked up): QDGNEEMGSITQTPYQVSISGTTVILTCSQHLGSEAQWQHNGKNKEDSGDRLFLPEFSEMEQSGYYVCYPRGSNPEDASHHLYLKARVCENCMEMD

human CD3 epsilon [6] = target: T5, human CD3 epsilon (human, UniProt P07766 23-126, limits assumed); assay: Octet
T5 construct: also called huCD3e

human PSMA [7] = target: T6, human PSMA (human, UniProt Q04609 44-750, limits assumed); assay: Octet
T6 construct: also called huPSMA

cynomolgus monkey PSMA [8] = target: T7, cynomolgus monkey PSMA (cynomolgus monkey, UniProt A0A2K5VNZ0 44-750); assay: Octet
T7 construct: also called cyPSMA; Cyno PSMA

human PSMA-Fc [9] = target: T3, human PSMA-Fc; assay: linker length / domain swap comparison
human PSMA-Fc [10] = target: T3, human PSMA-Fc; assay: Octet, human PSMA-Fc, 300-3.6 nM PSMA-uTCE
[11] = target: T8, PSMA on human prostate cancer cell lines (LNCaP, 22Rv1) (human, UniProt Q04609 1-750); assay: cell-based or functional assay
Human CD3 = target: T9, Human CD3 (human, UniProt P07766 23-126); assay: BLI or SPR
T9 construct: not shown: A CD3 delta partner cannot be excluded

Cyno CD3 = target: T10, Cyno CD3 (cynomolgus monkey, UniProt Q95LI5 22-117); assay: BLI or SPR
T10 construct: also called cynomolgus monkey CD3; not shown: A CD3 delta partner cannot be excluded
T10 sequence: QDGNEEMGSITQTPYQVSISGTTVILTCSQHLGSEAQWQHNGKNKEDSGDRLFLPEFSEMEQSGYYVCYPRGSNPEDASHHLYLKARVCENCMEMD

[12] = target: T8, PSMA on human prostate cancer cell …; assay: cell-based or functional assay; remark: listed apart in the source
human PSMA [13] = target: T6, human PSMA; assay: Biacore
cynomolgus monkey PSMA [14] = target: T7, cynomolgus monkey PSMA; assay: Biacore
[15] = target: T4, cynomolgus monkey CD3 epsilon; assay: Biacore
human CD3 epsilon [16] = target: T5, human CD3 epsilon; assay: Biacore
human PSMA [17] = target: T6, human PSMA; assay: BLI or SPR
Excerpt: (§3) The values are reported below in Table 19 for PSMA and Table 20 for CD3.

cynomolgus monkey PSMA [18] = target: T7, cynomolgus monkey PSMA; assay: BLI or SPR
Excerpt: as §3

human PSMA [19] = target: T6, human PSMA; assay: Pool 2 binding screen

T5 sequence (P07766 23-126 limits assumed): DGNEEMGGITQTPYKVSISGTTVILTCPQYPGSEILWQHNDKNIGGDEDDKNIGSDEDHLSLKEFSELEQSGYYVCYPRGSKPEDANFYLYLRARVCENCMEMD
T9 sequence (P07766 23-126 limits assumed): as above
T8 sequence (Q04609 whole entry): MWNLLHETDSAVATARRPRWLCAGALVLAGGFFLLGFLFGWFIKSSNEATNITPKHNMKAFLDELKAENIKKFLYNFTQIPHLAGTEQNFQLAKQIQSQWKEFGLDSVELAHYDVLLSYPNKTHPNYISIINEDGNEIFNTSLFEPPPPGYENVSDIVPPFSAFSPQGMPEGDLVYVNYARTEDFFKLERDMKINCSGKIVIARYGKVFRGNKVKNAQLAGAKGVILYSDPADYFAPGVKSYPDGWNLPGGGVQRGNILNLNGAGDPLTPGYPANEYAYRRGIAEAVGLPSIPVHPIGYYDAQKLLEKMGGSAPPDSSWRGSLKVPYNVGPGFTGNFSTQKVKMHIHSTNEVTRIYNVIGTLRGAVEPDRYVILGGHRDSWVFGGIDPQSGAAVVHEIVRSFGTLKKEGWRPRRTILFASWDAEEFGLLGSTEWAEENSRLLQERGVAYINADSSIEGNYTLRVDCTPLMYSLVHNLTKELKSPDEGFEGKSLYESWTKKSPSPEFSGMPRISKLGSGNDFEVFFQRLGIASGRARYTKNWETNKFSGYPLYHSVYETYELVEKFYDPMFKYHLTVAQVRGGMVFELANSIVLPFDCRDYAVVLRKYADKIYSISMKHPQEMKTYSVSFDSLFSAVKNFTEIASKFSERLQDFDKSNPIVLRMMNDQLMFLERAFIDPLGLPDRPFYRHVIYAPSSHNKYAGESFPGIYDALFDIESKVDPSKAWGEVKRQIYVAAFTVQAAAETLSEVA
T3 sequence (Q04609 44-750 limits assumed): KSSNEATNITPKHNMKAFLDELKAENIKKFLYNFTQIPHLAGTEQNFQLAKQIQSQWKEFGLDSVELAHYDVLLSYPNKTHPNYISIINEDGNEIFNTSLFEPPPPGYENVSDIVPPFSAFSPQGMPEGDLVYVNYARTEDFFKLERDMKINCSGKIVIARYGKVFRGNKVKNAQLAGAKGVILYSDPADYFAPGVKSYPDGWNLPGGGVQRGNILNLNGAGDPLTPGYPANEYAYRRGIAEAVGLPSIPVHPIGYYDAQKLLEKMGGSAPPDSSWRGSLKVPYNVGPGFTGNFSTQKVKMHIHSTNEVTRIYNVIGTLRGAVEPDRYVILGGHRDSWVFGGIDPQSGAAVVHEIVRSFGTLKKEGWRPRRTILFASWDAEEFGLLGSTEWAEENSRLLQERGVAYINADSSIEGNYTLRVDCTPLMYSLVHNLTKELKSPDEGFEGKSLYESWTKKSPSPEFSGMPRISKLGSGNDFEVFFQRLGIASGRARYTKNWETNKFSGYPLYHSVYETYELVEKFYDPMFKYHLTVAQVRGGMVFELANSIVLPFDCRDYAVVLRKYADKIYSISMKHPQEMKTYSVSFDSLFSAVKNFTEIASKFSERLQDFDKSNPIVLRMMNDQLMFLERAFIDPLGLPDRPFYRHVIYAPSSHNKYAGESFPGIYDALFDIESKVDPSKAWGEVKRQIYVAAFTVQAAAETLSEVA
T6 sequence (Q04609 44-750 limits assumed): as above
T1 sequence (Q04609 whole entry): as the sequence (Q04609 whole entry) above

- EC50 [1]: 9.06 nM
- EC50 [2]: 28.8 nM
- Kd (human PSMA-Fc [3]): 3.9 nM
- koff (human PSMA-Fc [3]): 0.000273 s⁻¹
- kon (human PSMA-Fc [3]): 72500 M⁻¹ s⁻¹
- Kd (human PSMA-Fc [4]): 3.9 nM
- Kd [5]: 64.6 nM
- Kd (human CD3 epsilon [6]): 71.9 nM
- Kd (human PSMA [7]): 4.5 nM
- Kd (cynomolgus monkey PSMA [8]): 41.1 nM
- Kd (human PSMA-Fc [9]): 3.9 nM
- koff (human PSMA-Fc [9]): 0.00027 s⁻¹
- kon (human PSMA-Fc [9]): 72000 M⁻¹ s⁻¹
B1: uTCE from AC3092 (bispecific antibody)
chain: LTGPATSGSETPGTQVQLVESGGGVVQPGRSLRLSCAASGRTFGIYVMGWVRQAPGKEREFVAAISWSGSNRLVSDSVKGRFTISRDNSKNTLYLQMNSLRAEDTAVYYCAASNRLYGRTWYDFNESDYWGQGTQVTVSSGGGGSGGGSELVVTQEPSLTVSPGGTVTLTCRSSNGAVTSSNYANWVQQKPGQAPRGLIGGTNKRAPGTPARFSGSLLGGKAALTLSGVQPEDEAVYYCALWYPNLWVFGGGTKLTVLGATPPETGAETESPGETTGGSAESEPPGEGEVQLLESGGGIVQPGGSLKLSCAASGFTFNTYAMNWVRQAPGKGLEWVARIRSKYNNYATYYADSVKDRFTISRDDSKNTVYLQMNNLKTEDTAVYYCVRHENFGNSYVSWFAHWGQGTLVTVSSGTAEAASASGEAGRSANHTPAG
notes: unmasked TCE released from this paTCE; also called AMX-500-P1; PSMA.5-CD3.23 uTCE

- koff (human PSMA-Fc [3]): 0.00028 s⁻¹
- kon (human PSMA-Fc [3]): 104000 M⁻¹ s⁻¹
- Kd (human PSMA-Fc [4]): 2.7 nM
- Kd (human PSMA-Fc [10]): 2.7 nM
B2: uTCE of AC3265 (bispecific antibody, V domains shown)
VH: QVQLVESGGGVVQPGRSLRLSCAASGRTFGIYVMGWYRQAPGKEREFVAAISWSGSNRLVSDSVKGRFTISRDNSKNTLYLQMNSLRAEDTAVYYCAASNRLYGRTWYDFNESDYWGQGTQVTVSS
notes: VHH in uTCE with CD3.23 scFv (VL-VH), 9-residue linker; also called PSMA.55; V37Y

- Kd (Human CD3): 28 nM
- koff (Human CD3): 0.1 s⁻¹
- kon (Human CD3): 4e+06 M⁻¹ s⁻¹
- Kd (Cyno CD3): 26 nM
- koff (Cyno CD3): 0.1 s⁻¹
- kon (Cyno CD3): 5e+06 M⁻¹ s⁻¹
- EC50 [1]: 17.4 nM
- Kd (human PSMA [13]): 11.7 nM
- Kd (cynomolgus monkey PSMA [14]): 230 nM
- Kd [5]: 38.8 nM
- Kd (human CD3 epsilon [6]): 33.2 nM
- Kd [15]: 13.7 nM
- Kd (human CD3 epsilon [16]): 12.8 nM
- Kd (human PSMA [17]): 44 nM
- koff (human PSMA [17]): 0.012 s⁻¹
- kon (human PSMA [17]): 270000 M⁻¹ s⁻¹
- Kd (cynomolgus monkey PSMA [18]): 410 nM
- koff (cynomolgus monkey PSMA [18]): 0.043 s⁻¹
- kon (cynomolgus monkey PSMA [18]): 100000 M⁻¹ s⁻¹
- Kd (human PSMA [7]): 12.1 nM
- Kd (cynomolgus monkey PSMA [8]): 201 nM
B3: AMX-500(uTCE) (bispecific antibody)
chain: GTSESATPESQVQLVESGGGVVQPGRSLRLSCAASGRTFGIYVWGWFRQAPGKEREFVGAMSWSGSNRKVSDSVKGRFTISRDNSKNTLYLQMNSLRAEDTAVYYCAASNKEYGRTWYDFNESDYWGQGTQVTVSSGGGGSGGGSELVVTQEPSLTVSPGGTVTLTCRSSNGAVTSSNYANWVQQKPGQAPRGLIGGTNKRAPGTPARFSGSLLGGKAALTLSGVQPEDEAVYYCALWYPNLWVFGGGTKLTVLSESATPESGPGTSPGATPESGPGTSESATPEVQLVESGGGIVQPGGSLRLSCAASGFTFSTYAMNWVRQAPGKGLEWVGRIRTKRNNYATYYADSVKGRFTISRDDSKNTVYLQMNSLKTEDTAVYYCVRHENFGNSYVSWFAHWGQGTLVTVSSGTATPESGPG
notes: also called uTCE from AC3896; fully unmasked AMX-500; not shown: remnant of cleaved N-terminal release segment RSR-3213; remnant of cleaved C-terminal release segment RSR-3213
- in vitro cytotoxicity IC50, 22Rv1 cells with PBMC, donor 1 [11]: 0.691 nM
- in vitro cytotoxicity IC50, 22Rv1 cells with PBMC, donor 2 [11]: 1.34 nM
- in vitro cytotoxicity IC50, 22Rv1 cells with PBMC, donor 3 [11]: 1.3 nM
- in vitro cytotoxicity IC50, LNCaP PSMA-high cells with PBMC, donor 1 [12]: 0.024 nM
- in vitro cytotoxicity IC50, LNCaP PSMA-high cells with PBMC, donor 2 [12]: 0.015 nM
- in vitro cytotoxicity IC50, LNCaP PSMA-high cells with PBMC, donor 3 [12]: 0.016 nM
- in vitro cytotoxicity IC50, LNCaP PSMA-high cells with PBMC, donor 5 [12]: 0.032 nM

- Kd (human PSMA-Fc [3]): 3.2 nM
- koff (human PSMA-Fc [3]): 0.000248 s⁻¹
- kon (human PSMA-Fc [3]): 80000 M⁻¹ s⁻¹
- Kd (human PSMA-Fc [4]): 3.2 nM
- Kd (human PSMA [19]): 4.1 nM
B4: uTCE of AC3329 (bispecific antibody)
chain: LTGPRAPPEPEFARATSGSETPGTQVQLVESGGGVVQPGRSLRLSCAASGRTFGIYVMGWVRQAPGKEREFVAAISWSGSNRKVSDSVKGRFTISRDNSKNTLYLQMNSLRAEDTAVYYCAASNRLYGRTWYDFNESDYWGQGTQVTVSSGGGGSGGGSELVVTQEPSLTVSPGGTVTLTCRSSNGAVTSSNYANWVQQKPGQAPRGLIGGTNKRAPGTPARFSGSLLGGKAALTLSGVQPEDEAVYYCALWYPNLWVFGGGTKLTVLGATPPETGAETESPGETTGGSAESEPPGEGEVQLLESGGGIVQPGGSLKLSCAASGFTFNTYAMNWVRQAPGKGLEWVARIRSKYNNYATYYADSVKDRFTISRDDSKNTVYLQMNNLKTEDTAVYYCVRHENFGNSYVSWFAHWGQGTLVTVSSGTAEAASASGEAGRSANHTPAG
notes: unmasked TCE of this paTCE; also called PSMA.119; L59K
